Measured values taken from patent US7090843B1, “Recombinant anti-CD30 antibodies and uses thereof” (Seattle Genetics, Inc., priority 2000, dated 2006).
Read-outs that look alike come from different tables or passages of the source.

Columns and labels:
HD cell line L428 = experiment: Chemotherapeutic drugs on L428 cells pre-cultured with or without cross-linked AC10 (3H-thymidine); type: cell-based
Experimental: L428 cells were cultured for 24 hours in the presence or absence of 0.1 μg/ml anti-CD30 antibody, AC10, crosslinked by the addition of 20 μg/ml goat anti-mouse IgG antibodies. After the 24-hour culture period, the cells were harvested and washed with phosphate buffered saline (PBS). The cells were then plated into 96-well flat-bottom tissue culture plates at 5×10^3 cells/well and mixed with various dilutions of chemotherapeutic drugs. After a 1-hour exposure to the drugs the cells were washed twice, followed by the addition of fresh culture media. The plates were then incubated at 37° C. for 72 hours followed by a 4-hour incubation with 0.5 μCi/well ^3H-thymidine. The inhibition of growth was determined by comparing the amount of ^3H-thymidine incorporated into treated cells to the amount incorporated into untreated control cells.
To evaluate the effect of the anti-CD30 mAb in combination with chemotherapeutic drugs, L428 cells were incubated for 24 hours in either the absence of antibody or the presence of AC10 at 0.1 μg/ml with 20 μg/ml goat anti-mouse IgG to provide crosslinking for the primary antibody. After this incubation the cells were plated into 96-well tissue culture plates at 5×10^3 cells/well in the presence of dilutions of chemotherapeutic drugs including doxorubicin, cisplatin, and etoposide (Table 3). The EC50, concentration of drug needed to inhibit the incorporation of ^3H-thymidine by 50% compared to untreated control cells, was then determined for cells treated with the drugs alone or the combinations of drug and antibody.

[1] = system: L540cy Hodgkin's disease xenografts; experiment: Disseminated L540cy Hodgkin's disease xenograft; type: in vivo, SCID mice; details: 1 mg/kg/injection i.p. q2d×10 from d1 (FIG. 5A)
Experimental: (§1) Human tumor xenograft models: Female C.B-17 SCID mice, obtained from Taconic (Germantown, N.Y.) at 4–6 weeks of age, were used for all efficacy studies. To establish xenograft models of Hodgkin's disease, L540cy (HD) cells were harvested from cell culture, washed in ice cold phosphate buffered saline (PBS), resuspended in PBS, and maintained on ice until implantation. For disseminated disease models, mice were injected intravenously through the tail vein with 10^7 L540cy cells. Solid tumor xenografts were established by injecting mice subcutaneously (s.c.) with 2×10^7 L540cy cells. For therapeutic evaluation the indicated treatment doses and schedules were used.
Administration of AC10 and HeFi-1: Disseminated L540cy tumor bearing mice received 10^7 cells through the tail vein on d0 followed by therapy initiated on d1. Treated mice received i.p. injections of either AC10 or HeFi-1 every two days for a total of 10 injections, q2d×10, at 1 mg/kg/injection.

KM-H2 = experiment: Proliferation assay (3H-thymidine incorporation), immobilized or cross-linked anti-CD30 mAbs; type: cell-based
Experimental: (§2) Proliferation assays: CD30 expressing cell lines were cultured in flat-bottom 96-well plates at a density of 50,000 or 5,000 cells/well in growth media (RPMI with 10% fetal bovine serum (FBS) for cell lines L428, KM-H2 and Karpas 299, and RPMI/20% FBS for cell lines HDLM-2 and L540. The cell lines were cultured in the absence or presence of cross-linked soluble anti-CD30 mAbs or immobilized anti-CD30 mAbs, as described below.
(§3) Antibody cross-linking in solution: To cross-link the anti-CD30 antibodies in solution, various dilutions of AC10 or HeFi-1 were titrated into 96-well flat bottom tissue culture plates in the absence or presence of 20 μg/ml polyclonal goat anti-mouse IgG antibodies. Hodgkin's disease cell lines were then added to the plates at either 50,000 or 5,000 cells/well. The plates were incubated at 37° C. for 72 hours and were labeled with ^3H-thymidine, 1 μCi/well, for the final 5 hours.
(§4) Antibody immobilization: Antibody immobilization was obtained by coating wells with antibody in 50 mmol/L Tris buffer (pH 8.5) for 18 hours at 4° C. Prior to the addition of cells, wells were washed twice with PBS to remove unbound mAb. 50,000 or 5,000 cells in a total volume of 200 μl were added to each well. Proliferation was determined by uptake of ^3H-thymidine (0.5 μCi/well) during the final 8 hours of a 72 hour culture period.

L540 [2] = experiment: as above; type: cell-based
Experimental: as §2, §3, §4

L428 [3] = experiment: as above; type: cell-based
Experimental: as §2, §3, §4

HDLM-2 = experiment: as above; type: cell-based
Experimental: as §2, §3, §4

[4] = system: L540cy Hodgkin's disease xenografts; experiment: Subcutaneous L540cy Hodgkin's disease xenograft; type: in vivo, SCID mice; details: tumors >150 mm^3 at start, 2 mg/kg twice per week, five injections (FIG. 6)
Experimental: as §1
For the subcutaneous L540cy model, mice were injected s.c. with 2×10^7 cells and were observed daily for solid tumor formation. When tumors were palpable, the animals were randomly distributed into groups and received either AC10 or HeFi-1 q2d×10 at 2 mg/kg/injection.
To evaluate the efficacy of cAC10 in vivo, SCID mice were implanted subcutaneously with L540cy cells as described above. When the tumors reached an average size of greater than 150 mm^3 the mice were divided into groups that were either untreated or treated with 2 mg/kg cAC 10 twice per week for a total of five injections. The tumors in the untreated mice rapidly grew to an average size of greater than 600 mm^3 (FIG. 6).

L540 [5] = details: co-culture with mAb; cited from earlier work
L428 [6] = details: co-culture with mAb; cited from earlier work
L540 cells = experiment: Co-cultivation of L540 cells with antibodies, isolation of sCD30 from culture supernatant; type: cell-based; details: L540 cells co-cultivated with antibody
From the text: At the Fourth Workshop on Leukocyte Differentiation Antigens in Vienna in February 1989, monoclonal antibodies were submitted by three different laboratories and finally characterized as belonging to the CD30 group. […] However, the antibody Ber-H2 also labels a subpopulation of plasma cells (Schwarting et al., 1988, Blood 74:1678–1689) and G. Pallesen (G. Pallesen, 1990, Histopathology 16:409–413) describes, on page 411, that Ber-H2 is cross-reacting with an epitope of an unrelated antigen which is altered by formaldehyde.

ALCL tumor xenografts = details: Tian et al., 1995; cited from earlier work
[7] = Homo sapiens, L-428, L428, combination of drug and AC10 0.1 μg/ml cross-linked, read-out: EC50 (after incubation with AC10)
[8] = Homo sapiens, L-428, L428, drug alone, read-out: EC50 (drug alone)
[9] = Homo sapiens, L-428, L428, 24 hours with 0.1 μg/ml AC10 cross-linked with 20 μg/ml goat anti-mouse IgG, then 1-hour drug exposure, 72 hours, read-out: EC50, nM with AC10
[10] = Homo sapiens, L-428, L428, no antibody, 1-hour drug exposure, 72 hours, read-out: EC50, nM without AC10
[11] = immobilized mAb 10 μg/ml, 5,000 cells/well, 72 hours (FIG. 2)
[12] = immobilized mAb 10 μg/ml, 50,000 cells/well, 72 hours (FIG. 1)
[13] = soluble mAb 0.1 μg/ml cross-linked with 20 μg/ml goat anti-mouse IgG, 5×10^4 cell/well, 72 hours (FIG. 3)
[14] = soluble mAb cross-linked with 20 μg/ml goat anti-mouse IgG, 5×10^3 cell/well, 72 hours (FIG. 4)

Row | Molecule | EC50 (HD cell line L428; [7]) [nM] | EC50 (HD cell line L428; [8]) [nM] | EC50 (HD cell line L428; [9]) [nM] | EC50 (HD cell line L428; [10]) [nM] | signs of disease [1] | cell growth (3H-thymidine incorporation) (KM-H2; [13]) | cell growth (3H-thymidine incorporation) (L540 [2]; [13]) | cell growth (3H-thymidine incorporation) (L540 [2]; [14]) | cell growth (3H-thymidine incorporation) (L428 [3]; [13]) | cell growth (3H-thymidine incorporation) (L428 [3]; [14]) | cell growth (3H-thymidine incorporation) (HDLM-2; [13]) | cell growth (3H-thymidine incorporation) (HDLM-2; [14]) | other results
1 | COc1cccc2c1C(=O)c1c(O)c3c(c(O)c1C2=O)C[C@@](O)(C(=O)CO)C[C@@H]3O[C@H]1C[C@H](N)[C@H](O)[C@H](C)O1 [Doxorubicin] | ~9 | ~45 | 45 | 9 |  |  |  |  |  |  |  |  | 
2 | N.N.[Cl][Pt][Cl] [Cisplatin] |  |  |  |  |  |  |  |  |  |  |  |  | EC50 (HD cell line L428; L428, combination of drug and AC10 0.1 μg/ml cross-linked, read-out: EC50 (after incubation with AC10)): ~500 nM; EC50 (HD cell line L428; L428, drug alone, read-out: EC50 (drug alone)): ~1500 nM; EC50 (HD cell line L428; L428, 24 hours with 0.1 μg/ml AC10 cross-linked with 20 μg/ml goat anti-mouse IgG, then 1-hour drug exposure, 72 hours, read-out: EC50, nM with AC10): 1500 nM; EC50 (HD cell line L428; L428, no antibody, 1-hour drug exposure, 72 hours, read-out: EC50, nM without AC10): 500 nM
3 | COc1cc([C@@H]2c3cc4c(cc3[C@@H](O[C@@H]3O[C@@H]5CO[C@@H](C)O[C@H]5[C@H](O)[C@H]3O)[C@H]3COC(=O)[C@H]23)OCO4)cc(OC)c1O [Etoposide] | ~600 | ~1500 | 1500 | 600 |  |  |  |  |  |  |  |  | 
4 | AC10: murine anti-CD30 monoclonal antibody prepared against human NK-like cell line YT; hybridoma deposit ATCC PTA-6679 (antibody, listed as Mus musculus, V domains shown) VH: QIQLQQSGPEVVKPGASVKISCKASGYTFTDYYITWVKQKPGQGLEWIGWIYPGSGNTKYNEKFKGKATLTVDTSSSTAFMQLSSLTSEDTAVYFCANYGNYWFAYWGQGTQVTVSA VL: DIVLTQSPASLAVSLGQRATISCKASQSVDFDGDSYMNWYQQKPGQPPKVLIYAASNLESGIPARFSGSGSGTDFTLNIHPVEEEDAATYYCQQSNEDPWTFGGGTKLEIK |  |  |  |  | no signs of disease | growth inhibited | growth inhibited | growth inhibited | growth inhibited | growth inhibited | growth inhibited | growth inhibited | cell growth (3H-thymidine incorporation) (KM-H2; [11]): growth inhibition; cell growth (3H-thymidine incorporation) (KM-H2; [12]): inhibition of cell growth; cell growth (3H-thymidine incorporation) (KM-H2; soluble mAb 0.11 g/ml cross-linked with 20 μg/ml goat anti-mouse IgG, 5×10^3 cell/well, 72 hours (FIG. 4)): growth inhibited; cell growth (3H-thymidine incorporation) (L540 [2]; [11]): growth inhibition; cell growth (3H-thymidine incorporation) (L540 [2]; [12]): inhibition of cell growth; cell growth (3H-thymidine incorporation) (L428 [3]; [11]): growth inhibition; cell growth (3H-thymidine incorporation) (L428 [3]; [12]): inhibition of cell growth; cell growth (3H-thymidine incorporation) (HDLM-2; [11]): growth inhibition; cell growth (3H-thymidine incorporation) (HDLM-2; [12]): inhibition of cell growth
5 | cAC10: chimeric antibody: AC10 heavy and light chain variable regions with human gamma 1 and kappa constant regions (antibody, left off: a dimerising Fc or GST, chimeric antibody: AC10 heavy and light chain variable regions with human gamma 1 and kappa constant regions) heavy: QIQLQQSGPEVVKPGASVKISCKASGYTFTDYYITWVKQKPGQGLEWIGWIYPGSGNTKYNEKFKGKATLTVDTSSSTAFMQLSSLTSEDTAVYFCANYGNYWFAYWGQGTQVTVSA light: DIVLTQSPASLAVSLGQRATISCKASQSVDFDGDSYMNWYQQKPGQPPKVLIYAASNLESGIPARFSGSGSGTDFTLNIHPVEEEDAATYYCQQSNEDPWTFGGGTKLEIK |  |  |  |  |  |  |  |  |  |  |  |  | average tumor size [4]: remained about the same size
6 | HeFi-1: anti-CD30 mAb produced by immunizing mice with the L428 Hodgkin's disease cell line (antibody, V domains shown) VH: EVKLVESGGGLVQPGGSLRLSCATSGFTFSDYYMNWVRQPPGKALEWLGFIRNKANGYTTEFSASVMGRFTISRDDSQSILYLQMNTLRAEDSATYYCARDPPYGNPHYYAMDYWGQGTSVTVSS VL: DIVLTQSPASLAVSLGQRATISCRASKSVSASGYNYMHWYQQKAGQPPKLLIHLASNLESGVPARFSGSGSGTDFTLNIHPVEEEDASTYYCQHSGELPFTFGSGTKLEIK |  |  |  |  | no signs of disease | growth inhibited | growth inhibited | growth inhibited | growth inhibited | growth inhibited | growth inhibited | growth inhibited | viability of the cell line on co-culture (L540 [5]): failed to reveal any direct effect; viability of the cell line on co-culture (L428 [6]): failed to reveal any direct effect; release of the sCD30 (L540 cells): weakly enhanced; survival of SCID mice bearing ALCL tumor xenografts (ALCL tumor xenografts): prolonged survival
